Literature values in patent US4347323A, “Glycerol kinase from Streptomyces canus” (Toyo Jozo Kabushiki Kaisha, priority 1979, dated 1982).

Settings: known glycerol kinases

B1: E.Co-GK: known glycerol kinase of Escherichia coli (protein, UniProt P0A6F3 2-502, looked up)
Glycerol kinase: TEKKYIVALDQGTTSSRAVVMDHDANIISVSQREFEQIYPKPGWVEHDPMEIWATQSSTLVEVLAKADISSDQIAAIGITNQRETTIVWEKETGKPIYNAIVWQCRRTAEICEHLKRDGLEDYIRSNTGLVIDPYFSGTKVKWILDHVEGSRERARRGELLFGTVDTWLIWKMTQGRVHVTDYTNASRTMLFNIHTLDWDDKMLEVLDIPREMLPEVRRSSEVYGQTNIGGKGGTRIPISGIAGDQQAALFGQLCVKEGMAKNTYGTGCFMLMNTGEKAVKSENGLLTTIACGPTGEVNYALEGAVFMAGASIQWLRDEMKLINDAYDSEYFATKVQNTNGVYVVPAFTGLGAPYWDPYARGAIFGLTRGVNANHIIRATLESIAYQTRDVLEAMQADSGIRLHALRVDGGAVANNFLMQFQSDILGTRVERPEVREVTALGAAYLAGLAVGFWQNLDELQEKAVIEREFRPGIETTERNYRYAGWKKAVKRAMAWEEHDE
For B1, the pH stability is given as 6.5-7 pH.
